Patent US9340588B2, “Peptide secreted by Lactobacillus plantarum with immunomodulating function” (Imperial Innovations Limited, priority 2011, dated 2016)

B1: ST peptide: Peptide of 73 amino acids rich in serine and threonine, derived from protein D1 secreted by Lactobacillus plantarum; SEQ ID NO: 1 (protein, listed as Lactobacillus plantarum)
chain: GEVDGDSTTTTSTSTQTTQQTTTTQSSAQTSQTQAQPSQASQTQSSQTQTSKPAAQTTQTSSSTSNYHHHHHH
modifications: (1)..(73) ST peptide sequence

Legend:
[1] = system: enriched dendritic cells from human blood (LDCs); assay: Surface marker expression on blood-enriched dendritic cells (LDCs), flow cytometry; type: cell-based; conditions: for activation molecule CD83 on DCs / co-stimulating molecule CD40 on DCs / induction of MHC type II molecules (HLA-DR) on DCs: ST peptide 0.1-10 μg/mL or LPS 100 ng/mL, FIG. 5 panel B
Text: (§1) The dendritic cells were obtained from healthy patients who had neither autoimmune diseases, nor inflammatory diseases nor allergies nor malignant tumors. These subjects had given their written consent for their blood to be used for scientific purposes. The peripheral blood mononuclear cells (PBMCs) were isolated by differential centrifugation in Ficoll-Paque Plus (Amersham Biosciences, Chalfont St. Giles, UK). The cellular fraction LDC (low-density cells) was obtained by overnight centrifugation in NycoPrepe™ solution. The cells present in this LDC fraction were HLA-DR positive in 98-100% of cases, with morphological characteristics typical of the DCs (Ng, et al. (2009). A novel population of human CD56+ human leukocyte antigen D-related (HLA-DR+) colonic lamina propria cells is associated with inflammation in ulcerative colitis. Clin. Exp. Immuno1.158, 205-218).
Half a million LDCs per milliliter were cultured in complete medium (Dutch modified RPMI 1640 (Sigma-Aldrich, Dorset, UK) containing 100 U/mL penicillin/streptomycin, 2 mM L-glutamine, […] gentamicin (Sigma-Aldrich) and fetal bovine serum at 10% (v/v) (TCS cellworks, Buckingham, UK)). These cultures were carried out in the presence of the ST peptide identified as SEQ ID NO: 1 purified at concentrations of 10 μg/mL, 1 μg/mL and 0.1 μg/mL, and of LPS (100 ng/mL) (Sigma-Aldrich, St. Louis, USA) as positive control. The results were compared with parallel cultures without ST peptide identified as SEQ ID NO: 1 nor added LPS, acting as negative controls.
For the various experiments, labeling of the cells with the various antibodies (Table 1) was carried out in PBS supplemented with 1 mM EDTA and sodium azide at 0.02% (w/v) (FACS buffer). Labeling was carried out for 20 minutes in ice, in the dark. The cells were then washed with FACS buffer and were fixed with paraformaldehyde at 1% (v/v) in saline solution, and stored at 4° C. until acquisition of data in the flow cytometer. The negative controls used were isotype-matched antibodies without specificity, labeled with the same fluorochrome, which were obtained from the same company (isotype controls).
(§2) The flow cytometry data were obtained in a FACSCalibur cytometer (BD Biosciences), and the data were analyzed with the WinList 5.0 software (Verity, Me., US). The proportion of samples positive for a particular marker was determined relative to isotype controls. For quantification by histograms, an analysis was performed with the WinList software, in which the histogram of isotype staining was subtracted from the histogram of specific staining using normalized superenhanced Dmax (SED) substraction (Bagwell, C. B. (2005). Hyperlog—a flexible log-like transform for negative, zero, and positive valued data. Cytometry. 64, 34-42).

[2] = system: enriched dendritic cells from human blood (LDCs); assay: Intracellular cytokine production in blood-enriched dendritic cells (LDCs), monensin 4 h, flow cytometry; type: cell-based; conditions: ST peptide 0.1-10 μg/mL, 4 h monensin window, FIG. 6
Text: as §1
Half a million LDCs per milliliter were cultured in complete medium (Dutch modified RPMI 1640 (Sigma-Aldrich, Dorset, UK) containing 100 U/mL penicillin/streptomycin, 2 mM L-glutamine, […] gentamicin (Sigma-Aldrich) and fetal bovine serum at 10% (v/v) (TCS cellworks, Buckingham, UK)). These cultures were carried out in the presence of the ST peptide identified as SEQ ID NO: 1 purified at concentrations of 10 μg/mL, 1 μg/mL and 0.1 μg/mL, and of LPS (100 ng/mL) (Sigma-Aldrich, St. Louis, USA) as positive control. […]
as §2
The DCs were cultured for 4 hours in the presence/absence of monensin. […] This protocol has been extensively validated by our colleagues (Hart et al., (2005) Characteristics of intestinal dendritic cells in inflammatory bowel diseases. Gastroenterology. 129, 50-65) and makes it possible to quantify changes in the natural production of cytokines by the DCs in the absence of external stimuli such as PMA and/or ionomycin. Using this approach, the intracellular content of each cytokine is not determined. Instead, the changes induced in the production of cytokines in a temporal window of 4 hours (incubation time with monensin) are determined independently of the initial content of cytokines.

[3] = system: dendritic cells from colon mucosa biopsies (intestinal DC); assay: Intracellular cytokine production in dendritic cells from colon mucosa biopsies; type: cell-based, human
Description: The DCs were cultured for 4 hours in the presence/absence of monensin. Then they were stained for the surface markers as described above. Next they were fixed with LeucopermA, and permeabilized with LeucopermB before adding the intracellular staining antibodies. After incubation, the DCs were washed in FACS buffer, were fixed and were acquired as described above. The analysis was performed by the SED substraction detailed above, where the histogram of each cytokine of the DCs that had not been incubated with monensin were subtracted from the histogram of each cytokine of the DCs that had been incubated in the […] of monensin. This protocol has been extensively validated by our colleagues (Hart et al., (2005) Characteristics of intestinal dendritic cells in inflammatory bowel diseases. Gastroenterology. 129, 50-65) and makes it possible to quantify changes in the natural production of cytokines by the DCs in the absence of external stimuli such as PMA and/or ionomycin. Using this approach, the intracellular content of each cytokine is not determined. Instead, the changes induced in the production of cytokines in a temporal window of 4 hours (incubation time with monensin) are determined independently of the initial content of cytokines.
Biopsies from the colon were obtained from three healthy patients, who had given their written consent to participate in this study (one woman and two men, age range 30-58 years). These patients had normal intestines, both macroscopically and histologically, and had been examined after reporting changes in intestinal transit or rectal bleeding. Once obtained, the biopsies were collected in complete medium cooled to 4° C. and were processed before the first hour counting from when they were obtained. The biopsies were incubated in Hanks's balanced salt solution (HBSS) (Gibco BRL, Paisley, Scotland, UK) containing 1 mM dithiothreitol (DTT) (Sigma-Aldrich) for 20 minutes. Next, they were incubated in a 1 mM solution of ethylenediaminetetraacetic acid (EDTA) in order to remove both the epithelial cells and the layer of mucus and its associated bacteria. […] The cellular suspensions of mononuclear cells of the lamina propria (200000 cells/mL) were incubated for 4 hours in the presence of the ST peptide identified as SEQ ID NO: 1 purified (10 μg/mL) and in the presence/absence, in its turn, of monensin, with their corresponding negative controls. The DCs of the lamina propria were identified by flow cytometry from the presence of the markers HLA-DR+ and CD3-CD14-CD16-CD19-CD34- (Hart et al. (2005) Characteristics of intestinal dendritic cells in inflammatory bowel diseases. Gastroenterology, 129, 50-65).
The remaining procedures followed in this example were the same as in section 1 of example 1.

[4] = system: T lymphocytes stimulated by enriched dendritic cells from blood (LDC); assay: T lymphocytes stimulated with blood LDCs conditioned with ST peptide: homing markers and cytokines; type: cell-based, human
Description: (§3) The T lymphocytes were obtained from peripheral blood mononuclear cells (PBMCs). The PBMCs, obtained from freshly drawn blood as described in example 1, were resuspended in MiniMACs buffer (PBS supplemented with bovine serum albumin 0.5% (w/v) and EDTA 2 mM). This suspension was enriched with T cells by removing the CD14 positive, CD19 positive and HLA-DR positive cells with immuno-magnetized beads (Miltenyi Biotech, Bisley, UK) following the manufacturer's instructions. A percentage of T cells of 94.91%±1.06 (mean±standard deviation) was obtained as the mean value of all the extractions/enrichments.
(§4) The T cells were labeled with 5-carboxyfluorescein diacetate succinimidyl ester (CFSE, Invitrogen Ltd, UK) according to the manufacturer's instructions. The T cells thus labeled (4×10^5 cells per well) were incubated for 5 days with DCs at 0, 1, 2 or 3% in microtiter plates with U-shaped bottom. The proliferating T cells were identified and quantified by flow cytometry as those that contained a small amount of CFSE (CFSE^low) (FIG. 8).
The remaining flow cytometry protocols were carried out as described in section 1 of example 1.

[5] = system: T lymphocytes stimulated by enriched dendritic cells from colon biopsies (gut DC); assay: T lymphocytes stimulated with intestinal mucosa DCs conditioned with ST peptide: homing markers and cytokines; type: cell-based, human; conditions: T cells stimulated with gut DCs pulsed with ST peptide, vs basal gut DC
Description: as §3, §4
This example is the same as the preceding example, except in this case DCs isolated from intestinal mucosa were used.

[6] = ST peptide 0.1, 1 or 10 μg/mL, FIG. 5
[7] = colon biopsies of healthy patients, ST peptide 10 μg/mL, 4 h, FIG. 7
[8] = single donor with abnormal IL-12 production, FIG. 14
[9] = T cells co-incubated with LDCs pre-incubated with ST peptide, FIGS. 10 and 11
[10] = T cells incubated 5 days with LDCs pre-incubated with ST peptide, FIG. 9

Molecule	activation molecule CD83 on DCs [1]	co-stimulating molecule CD40 on DCs [1]	induction of MHC type II molecules (HLA-DR) on DCs [1]	marker of migration to intestinal mucosa integrin β7 on DCs [1, 6]	marker of migration to skin CLA on DCs [1, 6]	production of intracellular TGFβ in LDCs [2]	synthesis of IL-6 in LDCs [2]	synthesis of IL-10 in LDCs [2]	synthesis of IL-12 in LDCs [2]	production of IL-10 in intestinal DCs [3, 7]	production of IL-12 in intestinal DCs [3, 7]	production of IL-10 in colon mucosa DCs of a donor with unusually high IL-12 [3, 8]	production of IL-12 in colon mucosa DCs of a donor with unusually high IL-12 [3, 8]	production of IFNγ in T cells [4, 9]	production of IL-17 in T cells [4, 9]	CLA (marker of migration to skin) in T lymphocytes [4, 10]	integrin β7 (marker of migration to intestinal mucosa) in T lymphocytes [4, 10]	production of IL-10 in T cells ([5]; FIG. 12)	production of TGFβ in T cells ([5]; FIG. 12)	lymphocytes expressing the marker of migration to skin (CLA) ([5]; FIG. 13)
lipopolysaccharide [LPS, reference compound]	did induce overexpression	did induce overexpression	did induce overexpression	–	–	–	–	–	–	–	–	–	–	–	–	–	–	–	–	–
B1	Nor did the peptide produce changes	Nor did the peptide produce changes	Nor did the peptide produce changes	did not produce changes	did not produce changes	did not affect	reduction in the synthesis	increase in the synthesis	reduction in the synthesis	increase in the production	absence of any increase in the production	increasing the production	completely cancelled the production	decreased	decreased	increased considerably	decrease	even greater increase in the production	even greater increase	greater number of lymphocytes
